System: K160E/R164E double mutant SGTA_TPR
Experiment: Reciprocal NMR CSP titration, Rpn13_260-407 with K160E/R164E double mutant SGTA_TPR
Assay type: binding, human
Conditions: up to 6-fold molar excess of Rpn13_260-407 and vice versa; pH 6.0, 25 °C
Excerpt: The ‘two-carboxylate clamp’ mode of binding is a well-characterised mechanism of molecular recognition by TPR domains in the context of their binding to the conserved C-terminal IEEVD and MEEVD motifs of Hsp70 and Hsp90 chaperones, respectively. It is known that conserved residues present on the concave surface of the TPR domain form a positively charged region within this groove that clamp, the two carboxylate groups of the terminal aspartate (Fig. 3D). […]
Protein samples at concentrations between 300 μM and 1 mM were prepared in 10% D2O (Sigma Aldrich), 10 mM potassium phosphate pH 6.0, 100 mM NaCl and 250 μM TCEP buffer (with 10 μM DSS for proton chemical shift referencing). […] All NMR spectra were processed with TopSpin and analysed with CcpNMR Analysis[35]. Proteins used for NMR titrations were dialysed overnight against the same buffer (10 mM potassium phosphate pH 6.0, 100 mM NaCl and 250 μM TCEP) and mixed in different molar ratios, with the concentration of the labelled protein maintained constant. ^1H-^15N HSQC experiments were recorded for each titration point at 25 °C. Chemical shift perturbation (CSP) values were calculated for each amide signal using the following formula: […]

B1: Rpn13_260-407: Rpn13 C-terminal domain (residues 260–407), human, expressed in E. coli (protein)
chain: QPIQLSDLQSILATMNVPAGPAGGQQVDLASVLTPEIMAPILANADVQERLLPYLPSGESLPQTADEIQNTLTSPQFQQALGMFSAALASGQLGPLMCQFGLPAEAVEAANKGDVEAFAKAMQNNAKPEQKEGDTKDKKDEEEDMSLD
modifications: left off: thioredoxin A (TxA), N-terminal, cleaved | His6, N-terminal, cleaved
notes: Rpn13 C-terminal domain (residues 260–407), human, expressed in E. coli
  CSP with K160E/R164E SGTA_TPR, result in words: disruption of the SGTA_TPR-Rpn13_260-407 interaction
